Measurements as given in US20260103748A1 (NAVINCI DIAGNOSTICS, published 2026).

What was measured:
AKT2 = target: T1, AKT2 (human, UniProt P31751 1-481); experiment: multiplex in situ PLA on fixed human breast cancer cells with or without EGF
T1 construct: Endogenous protein in fixed human breast cancer cells (isPLA)
Experimental: (§1) Detection was performed in three imaging rounds with stripping of the specific fluorescently-labelled detection probe between rounds. DAPI staining is shown in each image. Three isPLA reactions are detected per round using either a FITC, Cy3 or Cy5 filter. The isPLA assays target protein phosphorylation-protein or protein-protein interactions.
(§2) In situ PLA probes using the set-up illustrated in FIG. 3 were generated to target protein-protein interactions or protein-protein phosphorylation targets. Each isPLA probe set contains a unique oligonucleotide sequence that is complimentary to a fluorescent-conjugated detection oligonucleotide. The detection oligos are conjugated to either FITC, Cy3 or Cy5.
(§3) Following probe incubation, the padlocks were circularised by ligation, subjected to RCA to generate RCA products and detected with fluorescently labelled detection probes. Detection was performed in three rounds (see FIG. 11). […] Next, the detection oligos were stripped and new detection oligos were added targeting phosphorylated Grb2, phosphorylated Pi3K and phosphorylated STAT3. The same procedure was repeated again to detect phosphorylated Pi3K-PanAKT interaction, STAT5a-JAK2 interaction and JAK1-JAK3 interaction.

Beta-catenin = target: T2, Beta-catenin (UniProt P35222 2-781); experiment: in situ proximity ligation assay on fixed MCF-7 cells, with blocking oligonucleotide 13+13, RCA and Cy5 detection
T2 construct: Endogenous protein in fixed MCF-7 cells, detected through a primary antibody and oligonucleotide-conjugated secondary antibodies (in situ PLA); also called Beta-caternin
T2 sequence (looked up): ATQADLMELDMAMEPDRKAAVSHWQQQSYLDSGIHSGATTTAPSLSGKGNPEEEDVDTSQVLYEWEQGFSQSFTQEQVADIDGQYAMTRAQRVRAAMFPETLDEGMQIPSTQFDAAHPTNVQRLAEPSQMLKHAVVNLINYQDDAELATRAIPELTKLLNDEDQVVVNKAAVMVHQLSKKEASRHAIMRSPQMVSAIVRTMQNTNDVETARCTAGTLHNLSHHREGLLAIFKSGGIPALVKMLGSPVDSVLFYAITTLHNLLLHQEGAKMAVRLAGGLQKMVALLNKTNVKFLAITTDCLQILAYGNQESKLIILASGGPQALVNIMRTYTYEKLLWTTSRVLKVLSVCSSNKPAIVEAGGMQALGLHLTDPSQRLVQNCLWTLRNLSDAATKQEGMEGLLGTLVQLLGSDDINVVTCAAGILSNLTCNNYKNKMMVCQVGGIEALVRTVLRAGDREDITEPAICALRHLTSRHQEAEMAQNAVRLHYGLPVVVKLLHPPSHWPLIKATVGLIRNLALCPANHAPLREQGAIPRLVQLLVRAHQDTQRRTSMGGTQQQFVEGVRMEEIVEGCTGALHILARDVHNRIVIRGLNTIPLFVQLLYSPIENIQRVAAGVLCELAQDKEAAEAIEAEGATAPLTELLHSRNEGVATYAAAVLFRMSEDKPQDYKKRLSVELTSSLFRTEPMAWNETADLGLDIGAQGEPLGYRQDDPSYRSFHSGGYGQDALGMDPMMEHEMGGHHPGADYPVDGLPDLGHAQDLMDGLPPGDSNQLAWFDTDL

JAK2 = target: T3, JAK2 (human, UniProt O60674 1-1132); experiment: multiplex in situ PLA on fixed human breast cancer cells with or without EGF
T3 construct: Endogenous protein in fixed human breast cancer cells (isPLA)
Experimental: as §1, §2, §3

T1 sequence (P31751 whole entry): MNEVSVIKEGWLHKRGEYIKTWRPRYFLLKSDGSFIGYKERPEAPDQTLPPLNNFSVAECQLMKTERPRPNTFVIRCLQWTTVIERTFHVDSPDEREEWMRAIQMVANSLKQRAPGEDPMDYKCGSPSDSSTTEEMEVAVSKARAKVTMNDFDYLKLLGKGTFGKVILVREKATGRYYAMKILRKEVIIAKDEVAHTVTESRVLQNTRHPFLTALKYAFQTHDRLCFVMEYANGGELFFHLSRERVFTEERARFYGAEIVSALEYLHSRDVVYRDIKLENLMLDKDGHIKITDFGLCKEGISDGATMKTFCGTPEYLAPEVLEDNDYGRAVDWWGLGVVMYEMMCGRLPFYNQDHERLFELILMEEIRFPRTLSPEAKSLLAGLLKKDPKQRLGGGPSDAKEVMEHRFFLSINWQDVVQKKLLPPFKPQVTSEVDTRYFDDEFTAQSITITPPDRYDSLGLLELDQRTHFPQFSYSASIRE
T3 sequence (O60674 whole entry): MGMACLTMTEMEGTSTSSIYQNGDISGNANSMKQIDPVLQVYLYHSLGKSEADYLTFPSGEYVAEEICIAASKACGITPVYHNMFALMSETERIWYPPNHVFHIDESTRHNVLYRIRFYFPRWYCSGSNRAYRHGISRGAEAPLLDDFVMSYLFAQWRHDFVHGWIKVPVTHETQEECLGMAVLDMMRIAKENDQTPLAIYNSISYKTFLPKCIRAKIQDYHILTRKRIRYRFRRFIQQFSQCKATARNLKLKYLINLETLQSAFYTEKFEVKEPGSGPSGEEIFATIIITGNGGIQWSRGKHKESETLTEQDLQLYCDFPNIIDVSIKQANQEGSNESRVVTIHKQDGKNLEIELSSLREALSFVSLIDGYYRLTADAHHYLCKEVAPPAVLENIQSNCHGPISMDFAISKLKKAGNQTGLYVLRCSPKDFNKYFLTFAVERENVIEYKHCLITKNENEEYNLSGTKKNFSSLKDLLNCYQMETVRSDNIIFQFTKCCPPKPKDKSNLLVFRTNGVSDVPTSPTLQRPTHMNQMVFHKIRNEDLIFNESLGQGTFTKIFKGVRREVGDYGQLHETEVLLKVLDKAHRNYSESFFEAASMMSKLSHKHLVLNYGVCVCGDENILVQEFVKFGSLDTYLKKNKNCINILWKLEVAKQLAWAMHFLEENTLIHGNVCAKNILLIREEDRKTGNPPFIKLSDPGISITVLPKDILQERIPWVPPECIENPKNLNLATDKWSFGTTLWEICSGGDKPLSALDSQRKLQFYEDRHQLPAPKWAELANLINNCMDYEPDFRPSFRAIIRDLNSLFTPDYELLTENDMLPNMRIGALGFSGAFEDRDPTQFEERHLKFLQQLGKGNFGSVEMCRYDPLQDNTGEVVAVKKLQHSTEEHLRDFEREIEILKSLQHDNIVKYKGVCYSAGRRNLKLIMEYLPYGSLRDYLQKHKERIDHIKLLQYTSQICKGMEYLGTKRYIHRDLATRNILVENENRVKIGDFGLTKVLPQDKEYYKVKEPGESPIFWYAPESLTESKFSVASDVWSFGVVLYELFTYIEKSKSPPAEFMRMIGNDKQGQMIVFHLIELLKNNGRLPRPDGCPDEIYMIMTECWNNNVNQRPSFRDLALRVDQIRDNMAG

B1: AKT3 (enzyme, human, UniProt Q9Y243 2-479, looked up)
chain: SDVTIVKEGWVQKRGEYIKNWRPRYFLLKTDGSFIGYKEKPQDVDLPYPLNNFSVAKCQLMKTERPKPNTFIIRCLQWTTVIERTFHVDTPEEREEWTEAIQAVADRLQRQEEERMNCSPTSQIDNIGEEEMDASTTHHKRKTMNDFDYLKLLGKGTFGKVILVREKASGKYYAMKILKKEVIIAKDEVAHTLTESRVLKNTRHPFLTSLKYSFQTKDRLCFVMEYVNGGELFFHLSRERVFSEDRTRFYGAEIVSALDYLHSGKIVYRDLKLENLMLDKDGHIKITDFGLCKEGITDAATMKTFCGTPEYLAPEVLEDNDYGRAVDWWGLGVVMYEMMCGRLPFYNQDHEKLFELILMEDIKFPRTLSSDAKSLLSGLLIKDPNKRLGGGPDDAKEIMRHSFFSGVNWQDVYDKKLVPPFKPQVTSETDTRYFDEEFTAQTITITPPEKYDEDGMDCMDNERRPHFPQFSYSASGRE
notes: Endogenous protein in fixed human breast cancer cells (isPLA)
B1: binds (AKT2).

B2: E-cadherin (other, UniProt P12830 155-882, looked up)
chain: DWVIPPISCPENEKGPFPKNLVQIKSNKDKEGKVFYSITGQGADTPPVGVFIIERETGWLKVTEPLDRERIATYTLFSHAVSSNGNAVEDPMEILITVTDQNDNKPEFTQEVFKGSVMEGALPGTSVMEVTATDADDDVNTYNAAIAYTILSQDPELPDKNMFTINRNTGVISVVTTGLDRESFPTYTLVVQAADLQGEGLSTTATAVITVTDTNDNPPIFNPTTYKGQVPENEANVVITTLKVTDADAPNTPAWEAVYTILNDDGGQFVVTTNPVNNDGILKTAKGLDFEAKQQYILHVAVTNVVPFEVSLTTSTATVTVDVLDVNEAPIFVPPEKRVEVSEDFGVGQEITSYTAQEPDTFMEQKITYRIWRDTANWLEINPDTGAISTRAELDREDFEHVKNSTYTALIIATDNGSPVATGTGTLLLILSDVNDNAPIPEPRTIFFCERNPKPQVINIIDADLPPNTSPFTAELTHGASANWTIQYNDPTQESIILKPKMALEVGDYKINLKLMDNQNKDQVTTLEVSVCDCEGAAGVCRKAQPVEAGLQIPAILGILGGILALLILILLLLLFLRRRAVVKEPLLPPEDDTRDNVYYYDEEGGGEEDQDFDLSQLHRGLDARPEVTRNDVAPTLMSVPRYLPRPANPDEIGNFIDENLKAADTDPTAPPYDSLLVFDYEGSGSEAASLSSLNSSESDKDQDYDYLNEWGNRFKKLADMYGGGEDD
notes: Endogenous protein in fixed MCF-7 cells, detected through a primary antibody and oligonucleotide-conjugated secondary antibodies (in situ PLA)
B2: binds (Beta-catenin).

B3: STAT5a (other, human, UniProt P42229 1-794, looked up)
chain: MAGWIQAQQLQGDALRQMQVLYGQHFPIEVRHYLAQWIESQPWDAIDLDNPQDRAQATQLLEGLVQELQKKAEHQVGEDGFLLKIKLGHYATQLQKTYDRCPLELVRCIRHILYNEQRLVREANNCSSPAGILVDAMSQKHLQINQTFEELRLVTQDTENELKKLQQTQEYFIIQYQESLRIQAQFAQLAQLSPQERLSRETALQQKQVSLEAWLQREAQTLQQYRVELAEKHQKTLQLLRKQQTIILDDELIQWKRRQQLAGNGGPPEGSLDVLQSWCEKLAEIIWQNRQQIRRAEHLCQQLPIPGPVEEMLAEVNATITDIISALVTSTFIIEKQPPQVLKTQTKFAATVRLLVGGKLNVHMNPPQVKATIISEQQAKSLLKNENTRNECSGEILNNCCVMEYHQATGTLSAHFRNMSLKRIKRADRRGAESVTEEKFTVLFESQFSVGSNELVFQVKTLSLPVVVIVHGSQDHNATATVLWDNAFAEPGRVPFAVPDKVLWPQLCEALNMKFKAEVQSNRGLTKENLVFLAQKLFNNSSSHLEDYSGLSVSWSQFNRENLPGWNYTFWQWFDGVMEVLKKHHKPHWNDGAILGFVNKQQAHDLLINKPDGTFLLRFSDSEIGGITIAWKFDSPERNLWNLKPFTTRDFSIRSLADRLGDLSYLIYVFPDRPKDEVFSKYYTPVLAKAVDGYVKPQIKQVVPEFVNASADAGGSSATYMDQAPSPAVCPQAPYNMYPQNPDHVLDQDGEFDLDETMDVARHVEELLRRPMDSLDSRLSPPAGLFTSARGSLS
notes: as for B1
B3: binds (JAK2).
